Reference: patent publication US20170298106A1 (ZYNGENIA, published 2017)
Where no end group is shown, it is not given here. MBP = maltose binding protein (MBP), fused to the peptide

Tests used:
VEGF [1] = target: T1, VEGF (human, UniProt P15692-4 27-191); assay: cell-based or functional assay
VEGF [2] = target: T1, VEGF; assay: sandwich ELISA, human VEGF coated (30 ng/ml), zybody varied in 3.876 ug/ml biotinylated Ang2, detection with HRP-streptavidin, A450
Method: (§1) Ninety-six-well plates were coated overnight with human VEGF (PeproTech, Inc. cat#100-20) at 30 ng/ml (100 μl/well). […] After washing (8×300 μl wash buffer), parallel samples received either HRP-conjugated anti-human kappa chain mAb (Abeam, cat # ab79115) diluted 1:1000 in Blocking buffer or HRP-conjugated streptavidin (Thermo Scientific cat#N100) diluted 1:4000 diluted in Blocking buffer. After incubation for 1 hour at RT, wells were washed (8×300 μl wash buffer) prior to receiving 100 μl of TMB substrate (KPL Laboratories). Color development was stopped with 100 μl of H₂SO₄, and absorbance was read at 450 nm.

rHER2-Fc = target: T2, rHER2-Fc (UniProt P04626 23-652); assay: ELISA, rHER2-Fc coated (20 ng/ml), sample diluted in 1.94 ug/ml biotinylated Ang2, detection with HRP anti-human kappa chain mAb, A450
T2 construct: Bought reagent; also called Her2 (ErbB2) Fc; ErbB2-Fc
Method: as §1, with “with rHER2-Fc (R&D cat#1129-ER-050)” for “with human VEGF (PeproTech, Inc. cat#100-20)”, “at 20” for “at 30”, “ng/ml (100W/well).” for “ng/ml (100 μl/well).”, “chain mAb-(Abeam,” for “chain mAb (Abeam,”, “# ab79115-1)” for “# ab79115)”

VEGF [3] = target: T1, VEGF; assay: ELISA, human VEGF coated (30 ng/ml), sample diluted in 3.876 ug/ml biotinylated Ang2, detection with HRP anti-human kappa chain mAb, A450
Method: as §1

angiopoietin-2 (Ang2) [4] = target: T3, angiopoietin-2 (Ang2) (human, UniProt O15123 68-496, limits assumed); assay: ELISA on rhAng2-coated wells, MRD-MBP fusion, anti-MBP detection; EC50 by 4 parameter fit
T3 construct: Plain and biotinylated Ang2 are kept as one molecule; also called rhAng2; recombinant Ang2
T3 sequence (looked up): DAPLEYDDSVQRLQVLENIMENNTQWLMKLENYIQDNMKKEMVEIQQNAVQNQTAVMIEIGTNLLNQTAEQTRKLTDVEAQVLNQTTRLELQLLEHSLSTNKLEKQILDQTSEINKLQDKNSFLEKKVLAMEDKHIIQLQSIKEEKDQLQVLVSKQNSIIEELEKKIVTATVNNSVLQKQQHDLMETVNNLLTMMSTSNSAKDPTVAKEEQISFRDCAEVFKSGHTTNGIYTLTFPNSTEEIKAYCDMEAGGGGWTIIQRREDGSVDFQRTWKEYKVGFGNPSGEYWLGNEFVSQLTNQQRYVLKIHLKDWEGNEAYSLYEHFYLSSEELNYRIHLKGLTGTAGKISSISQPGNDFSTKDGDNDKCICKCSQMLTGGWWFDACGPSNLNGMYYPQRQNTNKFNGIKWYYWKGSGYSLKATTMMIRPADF
Method: MBP fusion proteins were serially diluted in Blocking buffer and added to wells for 2 hours at RT. After washing (8×300 μl wash buffer), samples were treated with HRP-mouse anti MBP mAb (NEB, cat # E8038S), diluted 1:4000 in Blocking buffer. After incubation for 1 hour at RT, wells were washed (8×300 μl wash buffer) prior to receiving 100 μl of TMB substrate (KPL Laboratories). Color development was stopped with 100 μl of H₂SO₄, and absorbance was read at 450 nm.
Bound fusion proteins were detected with anti-MBP mAb. Assayed proteins represent mutational variants of the sequence […] […] (L17D) (SEQ ID NO:107). In this series, the motif MDD within L17D was mutated at the first D to all other possible amino acids (except cysteine). Other MRDs tested were “Lm32 KtoS” and a dimer of Lm32 (2×Lm32).

integrin αvβ3 = target: T4, integrin αvβ3 (UniProt P06756 31-992; P05106 27-718, limits assumed); assay: ELISA, coated antigen, absorbance at 405 nm, one condition per construct, BSA-coated wells as control; the bar labelled Antigen is the antigen of the MRD of the construct, here integrin avb3
T4 construct: Antigen of the ELISAs
T4 sequence (P06756 31-992 limits assumed, chain 1 of 2): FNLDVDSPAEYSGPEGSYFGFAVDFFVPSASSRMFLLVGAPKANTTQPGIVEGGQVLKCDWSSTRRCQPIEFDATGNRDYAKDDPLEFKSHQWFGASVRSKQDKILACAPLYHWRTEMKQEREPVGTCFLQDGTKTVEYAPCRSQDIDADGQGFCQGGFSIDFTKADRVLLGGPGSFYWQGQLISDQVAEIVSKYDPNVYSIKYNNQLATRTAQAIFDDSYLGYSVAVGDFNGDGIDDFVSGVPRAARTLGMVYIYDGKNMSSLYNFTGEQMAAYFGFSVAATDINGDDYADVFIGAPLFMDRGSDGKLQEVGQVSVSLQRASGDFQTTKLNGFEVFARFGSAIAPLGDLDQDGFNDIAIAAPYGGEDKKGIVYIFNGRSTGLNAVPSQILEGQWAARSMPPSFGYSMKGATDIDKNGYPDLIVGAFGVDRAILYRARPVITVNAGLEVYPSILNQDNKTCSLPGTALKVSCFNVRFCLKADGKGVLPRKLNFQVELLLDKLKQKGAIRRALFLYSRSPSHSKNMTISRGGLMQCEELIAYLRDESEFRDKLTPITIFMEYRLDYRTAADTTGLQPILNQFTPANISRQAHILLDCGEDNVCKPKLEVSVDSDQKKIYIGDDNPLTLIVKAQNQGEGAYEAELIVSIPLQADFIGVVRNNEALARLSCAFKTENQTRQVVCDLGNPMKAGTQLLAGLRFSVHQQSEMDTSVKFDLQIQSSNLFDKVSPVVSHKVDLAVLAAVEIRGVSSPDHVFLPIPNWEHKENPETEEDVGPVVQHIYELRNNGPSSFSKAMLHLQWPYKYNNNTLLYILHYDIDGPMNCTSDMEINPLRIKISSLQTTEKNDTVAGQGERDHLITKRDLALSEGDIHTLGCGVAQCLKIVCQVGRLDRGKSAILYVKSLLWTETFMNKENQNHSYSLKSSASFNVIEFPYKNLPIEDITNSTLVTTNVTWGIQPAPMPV
T4 sequence (P05106 27-718 limits assumed, chain 2 of 2): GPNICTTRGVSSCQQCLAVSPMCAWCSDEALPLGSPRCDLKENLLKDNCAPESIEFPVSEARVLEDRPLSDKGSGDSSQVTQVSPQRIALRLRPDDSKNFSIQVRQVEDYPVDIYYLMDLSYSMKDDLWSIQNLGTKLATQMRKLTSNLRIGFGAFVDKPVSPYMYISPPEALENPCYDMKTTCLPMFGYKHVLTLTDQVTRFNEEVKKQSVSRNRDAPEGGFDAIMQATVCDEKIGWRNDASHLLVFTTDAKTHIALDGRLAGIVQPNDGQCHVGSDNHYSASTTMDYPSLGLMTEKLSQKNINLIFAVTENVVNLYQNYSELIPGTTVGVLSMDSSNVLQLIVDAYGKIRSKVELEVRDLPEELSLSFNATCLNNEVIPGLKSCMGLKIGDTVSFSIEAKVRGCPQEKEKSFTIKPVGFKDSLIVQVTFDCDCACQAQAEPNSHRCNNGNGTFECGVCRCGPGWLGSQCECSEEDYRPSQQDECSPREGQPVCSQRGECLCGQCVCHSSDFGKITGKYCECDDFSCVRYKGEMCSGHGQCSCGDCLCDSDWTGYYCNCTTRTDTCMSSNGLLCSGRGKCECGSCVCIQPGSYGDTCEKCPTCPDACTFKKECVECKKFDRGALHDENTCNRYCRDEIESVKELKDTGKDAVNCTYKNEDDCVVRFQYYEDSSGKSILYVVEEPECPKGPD

[5] = target: T5, insulin-like growth factor-I receptor (IGF1R) (UniProt P08069 31-932, limits assumed); assay: ELISA, coated antigen, absorbance at 405 nm, one condition per construct, BSA-coated wells as control; the bar labelled Antigen is the antigen of the MRD of the construct, here IGF1R (RP)
T5 construct: also called immobilized IGF-1R

angiopoietin-2 (Ang2) [6] = target: T3, angiopoietin-2 (Ang2); assay: binding of MBP fusion to Ang2
insulin receptor = insulin receptor (UniProt P06213-2 28-944, limits assumed); assay: not described
Sequence of insulin receptor (P06213 other isoform, or with tags, fused parts or gaps limits assumed): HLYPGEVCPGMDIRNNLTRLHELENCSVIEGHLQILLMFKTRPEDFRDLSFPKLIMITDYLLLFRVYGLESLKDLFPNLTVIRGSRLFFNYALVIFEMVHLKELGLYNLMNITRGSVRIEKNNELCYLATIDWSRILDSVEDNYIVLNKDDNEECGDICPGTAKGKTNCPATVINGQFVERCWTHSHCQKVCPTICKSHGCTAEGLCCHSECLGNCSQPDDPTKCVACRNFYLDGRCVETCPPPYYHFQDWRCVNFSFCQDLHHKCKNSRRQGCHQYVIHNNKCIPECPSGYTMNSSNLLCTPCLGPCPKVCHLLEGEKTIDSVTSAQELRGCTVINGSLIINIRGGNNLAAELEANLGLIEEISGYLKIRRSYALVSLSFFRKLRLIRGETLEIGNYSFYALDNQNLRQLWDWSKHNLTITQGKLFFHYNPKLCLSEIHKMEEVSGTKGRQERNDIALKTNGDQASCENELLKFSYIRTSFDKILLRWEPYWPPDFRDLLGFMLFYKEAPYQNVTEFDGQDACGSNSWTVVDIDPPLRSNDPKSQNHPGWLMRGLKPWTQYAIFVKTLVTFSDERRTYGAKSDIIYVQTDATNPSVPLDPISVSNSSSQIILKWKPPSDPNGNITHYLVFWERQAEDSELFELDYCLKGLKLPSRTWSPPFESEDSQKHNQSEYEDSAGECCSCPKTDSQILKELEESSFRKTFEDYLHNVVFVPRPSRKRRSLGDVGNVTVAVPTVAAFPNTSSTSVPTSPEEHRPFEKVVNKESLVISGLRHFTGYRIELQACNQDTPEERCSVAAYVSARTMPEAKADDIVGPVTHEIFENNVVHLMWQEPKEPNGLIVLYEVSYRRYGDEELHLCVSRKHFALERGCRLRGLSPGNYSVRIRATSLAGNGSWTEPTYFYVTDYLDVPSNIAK

T1 sequence (P15692 other isoform, or with tags, fused parts or gaps limits assumed): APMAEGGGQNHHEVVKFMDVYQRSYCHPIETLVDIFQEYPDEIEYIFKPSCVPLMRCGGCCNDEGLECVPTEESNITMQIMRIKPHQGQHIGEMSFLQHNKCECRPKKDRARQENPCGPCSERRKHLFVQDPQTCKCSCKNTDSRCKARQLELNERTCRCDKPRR

B1: AVA-lm32(H) (bispecific antibody, not shown: a dimerising Fc or GST)
heavy (part 1 of 2): EVQLVESGGGLVQPGGSLRLSCAASGYTFTNYGMNWVRQAPGKGLEWVGWINTYTGEPTYAADFKRRFTFSLDTSKSTAYLQMNSLRAEDTAVYYCAKYPHYYGSSHWYFDVWGQGTLVTVSS
heavy (part 2 of 2): MGAQTNFMPMDNDELLLYEQFILQQGLE
VL: DIQMTQSPSSLSASVGDRVTITCSASQDISNYLNWYQQKPGKAPKVLIYFTSSLHSGVPSRFSGSGSGTDFTLTISSLQPEDFATYYCQQYSTVPWTFGQGTKVEIKR
notes: also called AVASTIN with the lm32 MRD fused to the heavy chain
**Q.** How did the “inhibition of VEGF-induced proliferation of HUVEC, IC50” value (VEGF [1]) turn out when B1 was run?
**A.** 0.36 nM

**Q.** What about the “EC50 (read off the curve)” value (VEGF [2]) of the same binder?
**A.** ~0.7 nM

**Q.** Does B1 bind (rHER2-Fc)?
**A.** no binding (tested: about 7 nM)

**Q.** What about the “EC50 (read off the curve)” value (VEGF [3]) of the same binder?
**A.** ~0.5 nM

**Q.** {MBP}-PGSGGGSMGAQTNFMPMDNDELLLYEQFILQQGLE (other, not shown: small tags and cut ends, also: N-terminal MBP fusion, not in chain) [Lm32 KtoS-MBP fusion] was tested. Which EC50 (angiopoietin-2 (Ang2) [4]) did it give?
**A.** 0.199 nM

B2: Her-sL-RGD4C (bispecific antibody, not shown: a dimerising Fc or GST)
light (part 1 of 2): not shown
light (part 2 of 2): GGGSCDCRGDCFC
VH: not shown
notes: Her = HERCEPTIN
**Q.** Does B2 bind (integrin αvβ3)?
**A.** no binding

B3: Her-1L-RP (bispecific antibody, not shown: a dimerising Fc or GST)
light (part 1 of 2): not shown
light (part 2 of 2): SSGGGGSGGGGGGSSRSSSFYSCLESLVNGPAEKSRGQWDGCRKK
VH: not shown
notes: Her = HERCEPTIN
**Q.** Does B3 bind [5]?
**A.** no binding

B4: HER-lm32(H) (bispecific antibody, not shown: a dimerising Fc or GST)
heavy (part 1 of 2): not shown
heavy (part 2 of 2): KSLSLSPGKGGGSMGAQTNFMPMDNDELLLYEQFILQQGLE
VL: not shown
notes: also called HERCEPTIN-lm32 fusion; HERCEPTIN lm-32
**Q.** Does B4 bind (VEGF [3])?
**A.** no binding (tested: about 20 nM)

**Q.** How did the EC50 (angiopoietin-2 (Ang2) [6]) turn out when {MBP}-KSLSLSPGSGGGSMGAQTNFMPMDNDELLLYEQFI (other, not shown: large carriers, also: N-terminal MBP fusion, not in chain) [MBP fusion of LM32 variant SEQ ID NO:32] was run?
**A.** 1.08 nM

**Q.** {MBP}-KSLSLSPGSGGGSMGAQTNFMPMDNEELLLYEQFI (other, not shown: large carriers, also: N-terminal MBP fusion, not in chain) [MBP fusion of LM32 variant SEQ ID NO:33] was tested. Which EC50 (angiopoietin-2 (Ang2) [6]) did it give?
**A.** 20.7 nM

**Q.** For {MBP}-KSLSLSPGSGGGSMGAQTNFMPMDNDEALLYEQFILQQGLE (other, not shown: large carriers, also: N-terminal MBP fusion, not in chain) [MBP fusion of LM32 variant SEQ ID NO:90], which EC50 (angiopoietin-2 (Ang2) [6]) is on record?
**A.** 0.182 nM

**Q.** Which EC50 (angiopoietin-2 (Ang2) [6]) does the source give for {MBP}-KSLSLSPGSGGGSMGAQTNFMPMDNDELTLYEQFILQQGLE (other, not shown: large carriers, also: N-terminal MBP fusion, not in chain) [MBP fusion of LM32 variant SEQ ID NO:91] here?
**A.** 1.42 nM

**Q.** Which EC50 (angiopoietin-2 (Ang2) [6]) does the source give for {MBP}-KSLSLSPGSGGGSMGAQTNFMPMDNDEGLLYEQFIYQQGLE (other, not shown: large carriers, also: N-terminal MBP fusion, not in chain) [MBP fusion of LM32 variant SEQ ID NO:93] here?
**A.** 0.902 nM

**Q.** Which EC50 (angiopoietin-2 (Ang2) [6]) does the source give for {MBP}-KSLSLSPGSGGGSMGAQTNFMPMDNDEALLYEQFIYQQGLE (other, not shown: large carriers, also: N-terminal MBP fusion, not in chain) [MBP fusion of LM32 variant SEQ ID NO:94] here?
**A.** 0.392 nM

**Q.** {MBP}-KSLSLSPGSGGGSMGAQTNFMPMDNDEGLLYEEFILQQGLE (other, not shown: large carriers, also: N-terminal MBP fusion, not in chain) [MBP fusion of LM32 variant SEQ ID NO:96] was tested. Which EC50 (angiopoietin-2 (Ang2) [6]) did it give?
**A.** 0.922 nM

**Q.** With {MBP}-KSLSLSPGSGGGSMGAQTNFMPMDNDEALLYEEFILQQGLE (other, not shown: large carriers, also: N-terminal MBP fusion, not in chain) [MBP fusion of LM32 variant SEQ ID NO:97] as the binder, how does the EC50 (angiopoietin-2 (Ang2) [6]) read?
**A.** 0.426 nM

**Q.** How did the EC50 (angiopoietin-2 (Ang2) [6]) turn out when {MBP}-KSLSLSPGSGGGSMGAQTNFMPMDQDELLLYEQFILQQGLE (other, not shown: large carriers, also: N-terminal MBP fusion, not in chain) [MBP fusion of LM32 variant SEQ ID NO:99] was run?
**A.** 0.383 nM

**Q.** For {MBP}-KSLSLSPGSGGGSMGAQTNFMPMDDDELLLYEQFILQQGLE (other, not shown: large carriers, also: N-terminal MBP fusion, not in chain) [MBP fusion of LM32 variant SEQ ID NO:100], which EC50 (angiopoietin-2 (Ang2) [6]) is on record?
**A.** 0.24 nM

**Q.** Does NFYQCIEMLASHPAEKSRGQWQECRTGG [Rm4-31] bind (insulin receptor)?
**A.** no binding

**Q.** Does NFYQCIEALVGVPAEKSRGQWQECRTG [Rm4-46] bind (insulin receptor)?
**A.** no binding

**Q.** Does NFYQCIEMLSLPPAEKSRGQWQECRTG [Rm4-49] bind (insulin receptor)?
**A.** no binding

**Q.** Does NFYQCIEVFWGRPAEKSRGQWQECRTG [Rm4-410] bind (insulin receptor)?
**A.** no binding

**Q.** Does NFYQCIEQLSSGPAEKSRGQWQECRTG [Rm4-411] bind (insulin receptor)?
**A.** no binding

**Q.** Does NFYQCIELLSARPAEKSRGQWAECRAG [Rm4-415] bind (insulin receptor)?
**A.** no binding

**Q.** Does NFYQCIEALARTPAEKSRGQWVECRAP [Rm4-417] bind (insulin receptor)?
**A.** no binding

**Q.** Does NFYQCIEQLALRPAEKSRGQWQECRTGG [Rm4-33] bind (insulin receptor)?
**A.** no binding

**Q.** Does NFYQCIDLLMAYPAEKSRGQWQECRTGG [Rm4-39] bind (insulin receptor)?
**A.** no binding

**Q.** Does NFYQCIERLVTGPAEKSRGQWQECRTGG [Rm4-310] bind (insulin receptor)?
**A.** no binding

**Q.** Does NFYQCIEYLAMKPAEKSRGQWQECRTGG [Rm4-314] bind (insulin receptor)?
**A.** no binding

**Q.** Does NFYQCIEALQSRPAEKSRGQWQECRTGG [Rm4-316] bind (insulin receptor)?
**A.** no binding

**Q.** Does NFYQCIEALSRSPAEKSRGQWQECRTGG [Rm4-319] bind (insulin receptor)?
**A.** no binding

**Q.** Does NFYQCIEHLSGSPAEKSRGQWQECRTG [Rm4-44] bind (insulin receptor)?
**A.** no binding

**Q.** Does NFYQCIESLAGGPAEKSRGQWQECRTG [Rm4-45] bind (insulin receptor)?
**A.** no binding
